Sequences and labels used below:
B1: HPV45.E6.95 (peptide)
peptide: NTELYNLLI
modifications: not checked
B2: HPV31.E6.46 (peptide)
peptide: AFTDLTIVY
modifications: not checked
B3: HPV16.E2.329 (peptide)
peptide: KSAIVTLTY
modifications: not checked
B4: HPV31.E1.349 (peptide)
peptide: VMDDSEIAY
modifications: not checked
B5: HPV16.E2.151 (peptide)
peptide: QVDYYGLYY
modifications: not checked
B6: HPV16.E2.23 (peptide)
peptide: STDLRDHIDY
modifications: not checked
B7: HPV18.E2.154 (peptide)
peptide: ATCVSHRGLY
modifications: not checked
B8: HPV45.E2.17 (peptide)
peptide: LQDKILDHY
modifications: not checked
B9: HPV45.E7.20 (peptide)
peptide: ELDPVDLLCY
modifications: not checked
B10: HPV16.E1.292 (peptide)
peptide: KLLSKLLCV
modifications: not checked
B11: HPV31.E6.90 (peptide)
peptide: KLTNKGICDL
modifications: not checked
B12: HPV18.E6.24 (peptide)
peptide: SLQDIEITCV
modifications: not checked
B13: HPV31.E1.272 (peptide)
peptide: KLLEKLLCI
modifications: not checked
B14: HPV18.E1.266 (peptide)
peptide: ILYAHIQCL
modifications: not checked
B15: HPV18.E2.211 (peptide)
peptide: TVSATQLVK
modifications: not checked
B16: HPV16.E4.9 (peptide)
peptide: AATKYPLLK
modifications: not checked
B17: HPV18.E2.230 (peptide)
peptide: STVSVGTAK
modifications: not checked
B18: HPV18.E1.210 (peptide)
peptide: KQGAMLAVFK
modifications: not checked
B19: HPV18.E2.61 (peptide)
peptide: QVVPAYNISK
modifications: not checked
B20: HPV31.E2.291 (peptide)
peptide: ATTPIIHLK
modifications: not checked
B21: HPV16.E1.483 (peptide)
peptide: KSLFGMSLMK
modifications: not checked
B22: HPV45.E6.84 (peptide)
peptide: SVYGETLEK
modifications: not checked
B23: HPV18.E7.6 (peptide)
peptide: ATLQDIVLH
modifications: not checked
B24: HPV45.E1.411 (peptide)
peptide: RQMNMSQWIK
modifications: not checked
B25: HPV18/45.E1.491 (peptide)
peptide: SYFGMSFIHF
modifications: not checked
B26: HPV31.E1.565 (peptide)
peptide: VFTFPNPFPF
modifications: not checked
B27: HPV31.E1.557 (peptide)
peptide: PYLHSRLVVF
modifications: not checked
B28: HPV16.E6.49 (peptide)
peptide: VYDFAFRDLCI
modifications: not checked
B29: HPV45.E1.578 (peptide)
peptide: VFTFPHAFPF
modifications: not checked
B30: HPV18.E2.142 (peptide)
peptide: YYMTDAGTW
modifications: not checked
B31: HPV18.E5.14 (peptide)
peptide: MYVCCHVPL
modifications: not checked
B32: HPV45.E6.44 (peptide)
peptide: VYQFAFKDL
modifications: not checked
B33: HPV16.E1.214 (peptide)
peptide: LYGVSFSEL
modifications: not checked
B34: HPV18.E2.168 (peptide)
peptide: GYNTFYIEF
modifications: not checked
B35: HPV18.E5.52 (peptide)
peptide: VYVFCFLLPM
modifications: not checked
B36: HPV31.E6.83 (peptide)
peptide: VYGTTLEKL
modifications: not checked
B37: HPV31.E6.69 (peptide)
peptide: FYSKVSEFRW
modifications: not checked
B38: HPV45.E2.144 (peptide)
peptide: YYITETGIW
modifications: not checked
B39: HPV31.E5.64 (peptide)
peptide: VVFIYIPLF
modifications: not checked
B40: HPV18.E6.89 (peptide)
peptide: TLEKLTNTGLY
modifications: not checked

In patent publication US20100272750A1 one finds IC50 data, which are given here for 40 molecules.

The IC50 is the concentration needed to halve the response being measured. A high value points to a need for much substance.

One test concerns the target HLA A0101 (human). The test is described as follows: 125I-probe competition, purified HLA.
Details: not given
The molecule B1 came in with an IC50 of 32 nM.
B2 yielded an IC50 of 31 nM.
The same measure, in the same setting: the figure for B3 is 9 nM; for B4 it is 18 nM.
Turning to B5, the IC50 amounted to 2.7 nM.
The same measure, in the same setting: the figure for B6 is 113 nM; for B7 it is 421 nM; for B8 it is 32 nM.
On the same count and under the same terms, the figure for B9 is 26 nM.

In the next test the target is HLA A0201 (human). Kind of test: 125I-probe competition, purified HLA.
Details: not given
B10 returned an IC50 of 31 nM.
On to B11, for which the IC50 is 205 nM.
Same read-out and setting: the value for B12 was 153 nM; that for B13 was 19 nM.

The same test, now with this note: remark: other sources report otherwise.
B14 showed an IC50 of 33 nM.

The target in the next test is HLA A0202 (human). The test is described as follows: 125I-probe competition, purified HLA.
Details: not given
For the molecule B10, the IC50 was 67.7 nM. That is a double-digit nanomolar value.
Same read-out and setting: the value for B11 was 440 nM; that for B12 was 25 nM.
On the same count and under the same terms, the value for B13 was 21 nM.

The same test, now with this note: remark: other sources report otherwise.
Consider B14, for which the IC50 came out at 8.5 nM. That is a single-digit nanomolar value.

In another test the target is HLA A0203 (human). Kind of test: 125I-probe competition, purified HLA.
Details: not given
In the case of B10, the IC50 stood at 23 nM.
On the same count and under the same terms, the figure for B11 is 585 nM; for B12 it is 38 nM.
The same measure, in the same setting: the value for B13 was 2.4 nM.

The test is the same for the next values; noted with them: remark: other sources report otherwise.
With B14, the IC50 was 10.2 nM.

The next test deals with HLA A0206 (human). The test is described as follows: 125I-probe competition, purified HLA.
Details: not given
Regarding B10, the IC50 is 125 nM.
Same read-out and setting: the value for B11 was 484 nM; that for B12 was 205 nM; that for B13 was 51 nM.

The same test, now with this note: remark: other sources report otherwise.
Turning to B14, the IC50 amounted to 236 nM. This lies in the sub-micromolar range.

The next test deals with HLA A0301 (human). The test is described as follows: 125I-probe competition, purified HLA.
Details: not given
Consider B15, for which the IC50 was 7 nM. This counts as single-digit nanomolar.
Same read-out and setting: the figure for B16 is 59 nM; for B17 it is 34 nM; for B18 it is 35 nM.
On the same count and under the same terms, the value for B19 was 308 nM; that for B20 was 10 nM.
On the same count and under the same terms, the figure for B21 is 3.9 nM; for B22 it is 21 nM.
In the case of B23, the IC50 was 211 nM.
Still for that read-out and setting: the value for B24 was 15 nM.

The target of a further test is HLA A1101 (human). The test is described as follows: 125I-probe competition, purified HLA.
Details: not given
As for B15, the IC50 was 4 nM.
On the same count and under the same terms, the figure for B16 is 20 nM; for B17 it is 6 nM; for B18 it is 11 nM.
On the same count and under the same terms, the value for B19 was 14 nM; that for B20 was 1.2 nM; that for B21 was 2 nM.
The same measure, in the same setting: the figure for B22 is 9.5 nM; for B23 it is 11 nM.
In turn, B24 returned an IC50 of 11 nM.

For a further test, the target named is HLA A2302 (human). Kind of test: 125I-probe competition, purified HLA.
Details: not given
Consider B25, for which the IC50 turned out to be 4.3 nM.
Same read-out and setting: the value for B26 was 12 nM.
For the molecule B27, the IC50 is 2.8 nM.
Molecule B28 gave an IC50 of 8.9 nM.
On the same count and under the same terms, the value for B29 was 15.9 nM; that for B30 was 14 nM.
On the same count and under the same terms, the figure for B31 is 24 nM.
Same read-out and setting: the figure for B32 is 1.1 nM.
As for B33, the IC50 is 7.2 nM.
On the same count and under the same terms, the figure for B34 is 13 nM; for B35 it is 57 nM; for B36 it is 8.2 nM.
Still for that read-out and setting: the figure for B37 is 8.8 nM; for B38 it is 2 nM; for B39 it is 108 nM.

The target of the next test is HLA A2402 (human). Kind of test: 125I-probe competition, purified HLA.
Details: not given
For the molecule B25, the IC50 came to 17.5 nM. This counts as double-digit nanomolar.
Same read-out and setting: the value for B26 was 17 nM; that for B27 was 38.7 nM.
Turning to B28, the IC50 was 22 nM.
B29 registered an IC50 of 90.4 nM.
Same read-out and setting: the value for B30 was 3.2 nM.
Still for that read-out and setting: the figure for B31 is 15 nM.
On the same count and under the same terms, the value for B32 was 4 nM; that for B33 was 3.1 nM.
Take B35: the IC50 is 178 nM.
The same measure, in the same setting: the value for B36 was 26 nM.
The same measure, in the same setting: the figure for B37 is 4.5 nM.
On the same count and under the same terms, the figure for B38 is 8.5 nM.
For the molecule B39, the IC50 stood at 276 nM. This IC50 lies about 32-fold higher than the previous one.

In the next test the target is HLA A2601 (human). The test is described as follows: 125I-probe competition, purified HLA.
Details: not given
For B1, the IC50 stood at 17300 nM.
Still for that read-out and setting: the figure for B5 is 251 nM; for B6 it is 758 nM; for B7 it is 646 nM.
Same read-out and setting: the figure for B8 is 5000 nM.
Still for that read-out and setting: the figure for B9 is 2110 nM.

Staying with this test, now noted: remark: other sources report otherwise.
As to B40, the IC50 was 265 nM.

The target in a further test is HLA A2902 (human). Kind of test: 125I-probe competition, purified HLA.
Details: not given
B25 registered an IC50 of 62 nM.
In turn, B26 came in with an IC50 of 603 nM.
Still for that read-out and setting: the value for B27 was 4360 nM.
Same read-out and setting: the figure for B2 is 36 nM; for B29 it is 57 nM; for B4 it is 95 nM.
Same read-out and setting: the figure for B5 is 25 nM; for B30 it is 3410 nM; for B7 it is 4210 nM.
In the case of B34, the IC50 is 835 nM.
Still for that read-out and setting: the figure for B35 is 5280 nM; for B37 it is 1780 nM.
On the same count and under the same terms, the value for B9 was 4290 nM.
On the same count and under the same terms, the value for B39 was 302 nM.

The target in another test is HLA A3002 (human). The test is described as follows: 125I-probe competition, purified HLA.
Details: not given
On to B25, for which the IC50 worked out at 1540 nM.
The same measure, in the same setting: the figure for B27 is 2230 nM.
On the same count and under the same terms, the value for B2 was 71 nM; that for B3 was 6 nM; that for B4 was 2550 nM.
The same measure, in the same setting: the figure for B5 is 160 nM; for B30 it is 2150 nM.
In turn, B31 showed an IC50 of 4720 nM.
In the case of B32, the IC50 came to 165 nM.
Still for that read-out and setting: the value for B6 was 17 nM.
Same read-out and setting: the value for B7 was 28 nM.
B8: the IC50 came to 836 nM. Compared with the last molecule, the IC50 is about 30-fold higher.
Still for that read-out and setting: the value for B34 was 1260 nM; that for B36 was 1240 nM; that for B37 was 1360 nM.
In turn, B39 gave an IC50 of 268 nM. Against the preceding molecule, the IC50 is about 5.1-fold lower.

Still in this test, the particulars now being: remark: other sources report otherwise.
B40: the IC50 turned out to be 476 nM.

For a further test, the target named is HLA A3101 (human). The test is described as follows: 125I-probe competition, purified HLA.
Details: not given
In the case of B15, the IC50 worked out at 6140 nM. In other words, the single-digit micromolar range.
B17 displayed an IC50 of 1760 nM.
The molecule B18 yielded an IC50 of 519 nM.
The same measure, in the same setting: the figure for B19 is 6660 nM; for B20 it is 34 nM; for B21 it is 230 nM.
Same read-out and setting: the value for B22 was 6510 nM; that for B23 was 543 nM.
Same read-out and setting: the value for B24 was 45 nM.

The target of a further test is HLA A6801 (human). The test is described as follows: 125I-probe competition, purified HLA.
Details: not given
The molecule B15 showed an IC50 of 31 nM.
Still for that read-out and setting: the figure for B17 is 10 nM; for B18 it is 235 nM; for B19 it is 8 nM.
The molecule B20 registered an IC50 of 2.5 nM.
The same measure, in the same setting: the figure for B21 is 887 nM.
On the same count and under the same terms, the value for B22 was 7.2 nM; that for B24 was 2560 nM.
